The nature of the data set: yeast display, Sf9 membrane polyspecificity reagent, FACS + sequencing; frameworks hold sequencing errors. In short, it runs like this:
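In a synthetic yeast display library (Saccharomyces cerevisiae BJ5465), nanobody expression was induced with galactose for 36–48 hours. FACS gates were set low and high (top ~1%) using anti-HA fluorescence for expression and streptavidin fluorescence for binding of the Sf9 membrane reagent. Each polyreactivity label is drawn from the gate of origin.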
On to “QVQLVESGGGLVQAGGSLRLSCAASGRTFSSYAMGWYRQEPGKERELVARINSDGGRTYYADSVKGRFTISRDNAKNTVYLQMNSLKPEDTAVYYCAKRVVRGKVDYWGQGTQVTVSS”, for which the “polyreactivity (PSR sort gate)” value is “low polyreactivity”.

In the case of “QVQLVESGGGLVQAGGSLRLSCAASGRTFSTNDMGWYRQAPGKERELVAAIDFDSDSTYYADSVKGRFTISRDNAKNTVYLQMNSMKPEDTAVYYCAAQYFSYGESYEYWGQGTQVTVSS”, the “polyreactivity (PSR sort gate)” value was “low polyreactivity”.

On to “QVQLVESGGGLVQAGGSLRLSCAASGRTFSTYAMGWYRQAPGKERELVATIRGSGSSTYYADSVKGRFTISRDNAKNTVYLQMNSLKPEDTAVYYCAKDNNRWRYLRYGSWGQGTQVTVSS”, for which the “polyreactivity (PSR sort gate)” value was “high polyreactivity”.

Regarding “QVQLVESGGGLVQAGGSLRLSCAASGRTFSTYAMGWYRQSPGKERELVAAITWRGASTYYADSVKGRFTISRDYAKNTVYLQMNSLKPEDTAVYYCATDAPDRTDSDSGFDAGYDYWGQGTQVTLSS”, the “polyreactivity (PSR sort gate)” value is “low polyreactivity”.

On to “QVQLVESGGGLVQAGGSLRLSCAASGRTFSVNAMGWYRQAPGKERELVAAISSGGGTNYADSVKGRFTISRDNAKNNVYLQMNSLKPEDTAVYYCAARTFGYPSHRKEMEYWGQGTQVTVSS”, for which the “polyreactivity (PSR sort gate)” value was “low polyreactivity”.

“QVQLVESGGGLVQAGGSLRLSCAASGRTFSVNAMGWYRQAPGKERELVAAISWDGGSTYYADSVKGRFTISRDNAKNTDYLQMNSLKPEDTAVYYCNKDLYYAYDYWRQGTQVTVSS”: the “polyreactivity (PSR sort gate)” value is “low polyreactivity”.

Consider “QVQLVESGGGLVQAGGSLRLSCAASGRTFSVNAMGWYRQAPGKERELVAAISWSTGSTYYADSVKGRFTISRDNAKNTVYLQMNSLKPEDTAVYYCAKLYEYRRSRYRTYGYWGQGTQVTVSS”, for which the “polyreactivity (PSR sort gate)” value is recorded as “high polyreactivity”.

As for “QVQLVESGGGLVQAGGSLRLSCAASGRTFSVYAMGWYRQAPGKERELVAGITSGGSTNYADSVKGRFTISRDNAKNTVYLQMNSLKPEDTAVYYCAAEDDSSTPEFDYWGQGTQVTVSS”, the “polyreactivity (PSR sort gate)” value was “low polyreactivity”.

On to “QVQLVESGGGLVQAGGSLRLSCAASGRTFSVYDMGWYRQAPGKERELVARIRSGGSTYYADSVKGRFTISRDNAKNTVYLQMNSLKPEDTAVYYCAADGFASRWYAYYYWGQGTQVTVSS”, for which the “polyreactivity (PSR sort gate)” value is recorded as “high polyreactivity”.

On to “QVQLVESGGGLVQAGGSLRLSCAASGRTFSYNAMGWYRQAPGKERELVAAITWRGSTTYYADSVKGRFTISRDNAKNTVYLQMNSLKPEDTAVYYCAADTGQPYILDYWGQGTQVTVSS”, for which the “polyreactivity (PSR sort gate)” value is listed as “low polyreactivity”.

On to “QVQLVESGGGLVQAGGSLRLSCAASGRTFSYYAIGWYRQAPGTERELVAGISYSGGTTYYADSVKGRFTISRDNAKNTVYLQMNSLKPEDTAVYYCATRYWTFSGYDYWGQGTQVTVSS”, for which the “polyreactivity (PSR sort gate)” value is “low polyreactivity”.

For “QVQLVESGGGLVQAGGSLRLSCAASGRTFSYYAMGWYREAPGNERELVAAITTGGRTYYADSVKGRFTISRDNAKNTVYLQMNSLKPEDTAVYYCAADYTVSYPYYEYYYWGQGTQVTVSS”, the “polyreactivity (PSR sort gate)” value is recorded as “high polyreactivity”.

For the sequence “QVQLVESGGGLVQAGGSLRLSCAASGRTFSYYAMGWYRQAPGKERELVAAISSGGSTYYADSVKGRFTISRDNAKNTVYLQMNSLKTEVSEVYYCAKSYYRYQVSSRMYYRGQGTQVTVSS”, the “polyreactivity (PSR sort gate)” value is recorded as “high polyreactivity”.

Take “QVQLVESGGGLVQAGGSLRLSCAASGRTFSYYAMGWYRQAPGKERELVAAIYRAGRTNYADSVKGRFTISRDNAKNNVYLQMHSLKPEDTAVYYCAADLAYGRPFVSYRTRACGQGTQVTVSS”: the “polyreactivity (PSR sort gate)” value is listed as “high polyreactivity”.

On to “QVQLVESGGGLVQAGGSLRLSCAASGRTFSYYAMGWYRQAPGKERELVATISWSGSTYYADSVKGRFTLSRDNAKNTVYLQMNSLKPEDTAVYYCAARYRYAGWYSVWYDYWGQGTQVSVSS”, for which the “polyreactivity (PSR sort gate)” value is “high polyreactivity”.

Turning to “QVQLVESGGGLVQAGGSLRLSCAASGRTFSYYAMGWYRQAPGKERELVAVISVSGGSTYYADSVKGRFTISRDNAKNTVYLQMNSLKPEDTAVYYCNVDLYYGYDYWGQGTQVTVSS”, the “polyreactivity (PSR sort gate)” value is “low polyreactivity”.

For the sequence “QVQLVESGGGLVQAGGSLRLSCAASGRTFSYYTMGWDRQAPGKERELVASITSDSSTNYADSVKGRFTISRDNAKNTVYLQMNSLKPEHTAVYYCAADHWIAPRRDYWGQGTQVTVSS”, the “polyreactivity (PSR sort gate)” value is recorded as “low polyreactivity”.

Turning to “QVQLVESGGGLVQAGGSLRLSCAASGRTFTEYAMGWYSQAHGKERELVARISIGDSTYYADSVKGRFTISRDNAKNTVYLQMNSLKPEDTAVFYCNAEYSRSYRYDEGYWGQGTQVTVSS”, the “polyreactivity (PSR sort gate)” value is “low polyreactivity”.

As to “QVQLVESGGGLVQAGGSLRLSCAASGRTFTFKAMGWYRQAPGKERELVAAMTSTGSTSYADSVKGRFTISRDNAKNTVYLQMNSLKPEDTAVYYCAKGYVIPYVHHVRPYGGEYLGQGTQVTVSS”, the “polyreactivity (PSR sort gate)” value is recorded as “low polyreactivity”.

Consider “QVQLVESGGGLVQAGGSLRLSCAASGRTFTFYTMGCYRQSPGKERELVAAITRSGGGTYYADSVKGRFTISRDNAKNTVYLQMNSLKPEDTAVYYCAAYNRNAFHWGQGTQVTVSS”, for which the “polyreactivity (PSR sort gate)” value is reported as “high polyreactivity”.

As for “QVQLVESGGGLVQAGGSLRLSCAASGRTFTGYAMGWYRQAPGKERELVAAISASGGSTYYADSVKGRFTISRDIAKNTVYFQMNSLKPEDTAVYYCAAETWYSVLWEEGYDYWGQGTQVTVSS”, the “polyreactivity (PSR sort gate)” value is “low polyreactivity”.

For the sequence “QVQLVESGGGLVQAGGSLRLSCAASGRTFTGYAMGWYRQAPGKERELVASISGSGGRTNYADSVKGRFTISRDNAKNTVYLQMNSLKPEDTAVYYCNARAHSYRKSSYIYLPYSYDYWGQGTQVTVSS”, the “polyreactivity (PSR sort gate)” value was “high polyreactivity”.

Consider “QVQLVESGGGLVQAGGSLRLSCAASGRTFTGYAMGWYRQAPGKERELVASISSRGGSTYYADSVKGRFTISRDNAKNTVYLQMNSLKPEDTAVYYCAADSVRHTYSWWYAVDYWGQGTQVTVSS”, for which the “polyreactivity (PSR sort gate)” value was “high polyreactivity”.

In the case of “QVQLVESGGGLVQAGGSLRLSCAASGRTFTHNAMGWYRQAPGKERELVAGITSGGSTNYADSVKGRFTISRDNAKNTVYLQMNSLKPEDTAVYYCNKVFFWSRYKGYYYWGQGTQVTVSS”, the “polyreactivity (PSR sort gate)” value is “high polyreactivity”.

As for “QVQLVESGGGLVQAGGSLRLSCAASGRTFTHYAMGWYRQAPGKERELVAAISWSGGRTYYADSVKGRFTISRDNAKNTVYLQMNSLKPEDTAVYYCAADAFRGFYWGQGTQVTVSS”, the “polyreactivity (PSR sort gate)” value is given as “high polyreactivity”.

As for “QVQLVESGGGLVQAGGSLRLSCAASGRTFTKYAMGWYRQAPGKERELVAAISRSGGSSYYADSAPGRFTISRDNAKNTVYLQMNSLKPEDTAVYYCAARGQYRYSFGDYSWGQGTQVTVSS”, the “polyreactivity (PSR sort gate)” value is “high polyreactivity”.

Consider “QVQLVESGGGLVQAGGSLRLSCAASGRTFTLNAMGWYRQAPGKEREFVAAISNSGVRTYYADSVKGRFTISRDNAKNTVYLQMNSLKPEDTAVYYCARTYQVGDSIDDYWGQGTQVTVSS”, for which the “polyreactivity (PSR sort gate)” value is on record as “low polyreactivity”.

Consider “QVQLVESGGGLVQAGGSLRLSCAASGRTFTLNAMGWYRQAPGKERELVATISRRGGSTYYADSVKGRFTISRDNAKNTVYLQMNSLKPEDTAVYYCNVDRLGQRYDYWGQGTQVTVSS”, for which the “polyreactivity (PSR sort gate)” value is recorded as “low polyreactivity”.

For “QVQLVESGGGLVQAGGSLRLSCAASGRTFTNYAMGWYRQAPGKERELVAAISKRGGTTYYADSVKGRFTISRDNAKNTVYLQMNSLKPEDTAVYYCNKAKTAYRGQYDYWGQGTQVTVSS”, the “polyreactivity (PSR sort gate)” value is “high polyreactivity”.

“QVQLVESGGGLVQAGGSLRLSCAASGRTFTQNAMGWYRQAPAKERELVAAISKSGDRTYYADSVKGRFTISRDNAKNTVYLQMNSLKPEDTAVYYCAADTYVSYYWWQTEDDYWGQGTQVTVSS”: the “polyreactivity (PSR sort gate)” value is “high polyreactivity”.
